# Measurements published in PMC7820495 (2021).
# T1: GST-SVIP (Drosophila SVIP, CG32039) (Drosophila, UniProt Q8IQC6 1-82)
# T1 chain: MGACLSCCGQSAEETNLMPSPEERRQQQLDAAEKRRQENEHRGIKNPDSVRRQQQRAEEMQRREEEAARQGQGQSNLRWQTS
# Target: T1, GST-SVIP (Drosophila SVIP, CG32039)
binder,measurement,value
"MBP-VCP^N-D1 (Drosophila VCP, N-terminal and first D1 ATPase domain) (domain or fragment) MADSKGEDLATAILKRKDRPNRLIVEEAQNDDNSVVSLSQAKMDELQLFRGDTVILKGKRRKETVCIVLSDDTCPDEKIRMNRVVRNNLCVHLSDVVSVQSCPDVKYGKRVRILPIDESTEGVTGNLFEIYLKPYFLEAYRPIHMGDNFIVRAAMRPIEFKVVLTDPEPYCIVAPETVIFCDGDPIKREEEEESLNAVGYDDIGGCRKQLAQIKEMVELPLRHPSLFKAIGVKPPRGILMYGPPGTGKTLIARAVANETGAFFFLINGPEIMSKLAGESESNLRKAFEEAEKNSPAIIFIDEIDAIAPKRDKTHGEVERRIVSQLLTLMDGMKKSSHLIVMAATNRPNSIDPALRRFGRFDREIDIGIPDATGRLEVLRIHTKNMKLHDDVDLEQIAAESHGHVGADLASLCSEAALQQIREKMDLIDLEDDKIDAEVLASLAVTMENFRYAMTKSSPSALRETVVEVPNTTWTDIGGLESVKKELQELVQYPVEHPDKFLKFGMQPSRGVLFYGPPGCGKTLLAKAIANECQANFISVKGPELLTMWFGESEANVRDIFDKARSAAPCVLFFDELDSIAKARGGNVGDAGGAADRVINQILTEMDGMGAKKNVFIIGATNRPDIIDPAILRPGRLDQLIYIPLPDDKSREAILKANLRKSPLAKEVDLTYIAKVTQGFSGADLTEICQRACKLAIRQAIEAEIRREKERAENQNSAMDMDEDDPVPEITSAHFEEAMKFARRSVSDNDIRKYEMFAQTLQQSRGFGQNFRFPGQTGNTSGSGNNLPVNSPGDNGDDDLYS",Kd,700 nM
